From the nanobody polyreactivity screen of Harvey et al. (2022)

Test: yeast display, Sf9 membrane polyspecificity reagent, FACS + sequencing; frameworks hold sequencing errors
Procedure, shortened: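 Using colony PCR, genes from sorted yeast display clones were amplified, then sequenced on MiSeq at 2 × 250 and filtered by CDR length. The clones had been stained with 10% biotinylated, detergent-solubilized Sf9 membrane reagent for 1 hour at 4 °C and sorted by FACS into low and high (top ~1%) gates on anti-HA and streptavidin fluorescence. Polyreactivity labels come from the gate of origin.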

QVQLVESGGGLVQAGGSLRLSCAASGITFVRYAMGWYRQAPGKEREFVAAINSIVGRTYYADSVKGRFTISRDNAKNTVYLQMNSLKPEDTAVYYCAADSNVRYGMDYWGQGTQVTVSS
polyreactivity (PSR sort gate): low polyreactivity

QVQLVESGGGLVQAGGSLRLSCAASGITFVRYAMGWYRQAPGKERELVAAISSGGSTHYADSVKGRFTISRDNAKNTVYLQMNSLKPEDTAVYYCAAQWTESSLYRFGYWGQGTQVTVSS
polyreactivity (PSR sort gate): high polyreactivity

QVQLVESGGGLVQAGGSLRLSCAASGITFVSYTMGWYRQAPGKERELVAAISTSGGSTYYADSVKGRFTISRDNAKNTVYLQMNSLKPEDTAVYYCAARQVRTIRKYGYWGQGTQVTVSS
polyreactivity (PSR sort gate): high polyreactivity

QVQLVESGGGLVQAGGSLRLSCAASGITFVTYAMGWYRQAPGKEREFVASINWITGNTYYADSVKGRFTISRDNAKNTVYLQMNSLKPEDTAVYYCATVDWSLYLGTPPSYYWGQGTQVTVSS
polyreactivity (PSR sort gate): low polyreactivity

QVQLVESGGGLVQAGGSLRLSCAASGITFVTYAMGWYRQAPGKERELVAAISRSGGRTYYADSVKGRFTISRDNAKNTVYLQMNSLKPEDTAVYYCAAERKNKYDYWGQGTQVTVSS
polyreactivity (PSR sort gate): high polyreactivity

QVQLVESGGGLVQAGGSLRLSCAASGITFVYYAMGWYRQAPGKDRELVAAITSTGGSTYYADSVKGRFTISRDNAKNTVYLQMNSLKPEDTAVYYCAAVPRGTQGAMDYWGQGTQVTVSS
polyreactivity (PSR sort gate): low polyreactivity

QVQLVESGGGLVQAGGSLRLSCAASGITFVYYAMGWYRQAPGKERELVAAISKNGGSTYYADSVKGRFTISRDNAKNTVYLQMNSLKPEDTAVYYCAAEEGYRWVRYNYWGQGTQVTVSS
polyreactivity (PSR sort gate): high polyreactivity

QVQLVESGGGLVQAGGSLRLSCAASGITFVYYAMRSYRQAPGKERELVAAITRSGDSTYYADSVKGRFTISRDNAKNTVYLQMNSLKPEDSAVYYCAAESYYSTYQVEYYYWGQGTQVTVSS
polyreactivity (PSR sort gate): high polyreactivity

QVQLVESGGGLVQAGGSLRLSCAASGITFWANAMGWERQAPGKERELVASIRSSGGSTYYADSVKGRFTISRDNAKNTVYLQMYSLKPEDTAVYYCYAKRTGPWFLHVPVYYWGQGTQVTVSS
polyreactivity (PSR sort gate): low polyreactivity

QVQLVESGGGLVQAGGSLRLSCAASGITFWLYAMGWYRQAPGKERELVAAISYSGGSTYYADSVKGRFTISRDNAKNTVYLQMNSLKPEETEVYYCNTGSRYRPNRRYGYWGQGTQVTVSS
polyreactivity (PSR sort gate): high polyreactivity

QVQLVESGGGLVQAGGSLRLSCAASGITFWNNAKGWYRQAPGKEREFVATISSNGGRTYYADSVKGRFTISRDNAKNTVYLQMNSLKPEDNAVYYCNAARRAYGYNYWGQGTQVTVSS
polyreactivity (PSR sort gate): low polyreactivity

QVQLVESGGGLVQAGGSLRLSCAASGITFWPYALGWYRPAPGKERELVAAIRASVGRTYYADSVKGRFTISRDNAKNTVYLQMNSLKPEDTAVYYCNAYGRYGKFRVEYDYWGQGTQVTVSS
polyreactivity (PSR sort gate): low polyreactivity

QVQLVESGGGLVQAGGSLRLSCAASGITFWRNAMGWYRQAPGKESELVAAISWSVGRTYYADSVKGRFTISRDNAKNTVYLQMNSLKPEDTAFYYCIARWRSGPRAYDYWGQGTQVSVSS
polyreactivity (PSR sort gate): high polyreactivity

QVQLVESGGGLVQAGGSLRLSCAASGITFWRTAMGWYRQAPGKEREFVAAITWTGGRTYYADSVKGRFTISRDNAQNTVYLQMNSLKPEDTAVYYCATGQSRDYYWGQGTQGTVSS
polyreactivity (PSR sort gate): high polyreactivity

QVQLVESGGGLVQAGGSLRLSCAASGITFWTYAMGWYRQAPGKERELVAAISKSGGSTYYADSVKGRFTISRDNAKNTVYLQMNSLKPEDTAVYYCAAKGLRYRDIDYDYWGQGTQVTVSS
polyreactivity (PSR sort gate): low polyreactivity

QVQLVESGGGLVQAGGSLRLSCAASGITFWWYAMGWYRQAPGKERELVAAITGGGSTNYADSVKGRFTISRDNAKNTVYLQMNSLKPEDTAVYYCAATGSPARNWDTVTGYYYWGQGTQVTVSS
polyreactivity (PSR sort gate): low polyreactivity

QVQLVESGGGLVQAGGSLRLSCAASGITFYDYTMVWYRQAPGKESELVAVITSAGSTYYADSVKGRFTISRDNAKNTVYLQMNSLKPEDTAVYYCAAVIVSRGRKYRLDYWGQGTQVTVSS
polyreactivity (PSR sort gate): high polyreactivity

QVQLVESGGGLVQAGGSLRLSCAASGITFYEYAMGCYRQAPGTERDFVAAIDHGDSSTYYADSVKGRFTISRDNAKNTVYLQMNSLKPEDTAVYYCNADPYYDYSLNWGDYWGQGTQVTVSS
polyreactivity (PSR sort gate): low polyreactivity

QVQLVESGGGLVQAGGSLRLSCAASGITFYFNAIGWYRQAPGKDRELVAAIAWPGGSTYYADSVKGRFTISRDNAKHTVFLQMNSLKPEDTAVYYCNGVFRYWYADSWFGAYDYWGQGTQVTVSS
polyreactivity (PSR sort gate): high polyreactivity

QVQLVESGGGLVQAGGSLRLSCAASGITFYFNAMGWYRQAPGKEREMVAAISWPGGSTYYADSVKGRFTISRDNAKNTVYLQMNRLKPEDTAVYYCAAEAYFELSGGGLEYGYDYWGQGTQVTVSS
polyreactivity (PSR sort gate): high polyreactivity

QVQLVESGGGLVQAGGSLRLSCAASGITFYFYAMGWYRQAPWKERELVAAITSTGTSTYYADSVKGRFTISRDNAKNTVYLQMNILKPEDTAVYYCNVTDYHTLWYDPEYYWGQGTQVTVSS
polyreactivity (PSR sort gate): low polyreactivity

QVQLVESGGGLVQAGGSLRLSCAASGITFYGNAMGWYRQAPGKERELVAGIRSSGGDTYYADSVKGRFTISRDNAKNTVYLQMNSLKPEDTAVYYCAADFDWFIWGYDYWGQGTQVTVSS
polyreactivity (PSR sort gate): low polyreactivity

QVQLVESGGGLVQAGGSLRLSCAASGITFYGNAMGWYRQAPGNERELVAAITFSGGITYYADSVKGRFTISRDNAKNTVYLQMNSLKPEDTAVYDCATDPIGGWTRPQRYGDDYWGQGTQVTVSS
polyreactivity (PSR sort gate): low polyreactivity

QVQLVESGGGLVQAGGSLRLSCAASGITFYGYAMGWYIQAPGKERELVASITSTGSTNYADSVKGRFTISRDNAKNTVYLQMNSLKPEDTAVYYCAARYREVYRSKRKLGYWGQGTQVTVSS
polyreactivity (PSR sort gate): high polyreactivity

QVQLVESGGGLVQAGGSLRLSCAASGITFYGYAMGWYRQAPGKEREFVATISKSGGITSYADSVKGRFTISRDNAKNTVYLQMNSLKPEDTAVYYCNRGKRYGGYDYWGQGSQVTVSS
polyreactivity (PSR sort gate): low polyreactivity

QVQLVESGGGLVQAGGSLRLSCAASGITFYGYAMGWYRQAPGKERELVAAISKRGGSTYYADSVKGRFTISRDNAKNTVYLQMNSLKPEDTAVYYCNARPGKSQGWRYDYWGQGTQVTVSS
polyreactivity (PSR sort gate): high polyreactivity

QVQLVESGGGLVQAGGSLRLSCAASGITFYGYAMGWYRQAPGKERELVAAISKSGGSTHYADSVKGRFTISRDNAKNTVYLQMNSLKPEDTAVYYCATEGYYYYTSYDYWGQGTQVTVSS
polyreactivity (PSR sort gate): low polyreactivity

QVQLVESGGGLVQAGGSLRLSCAASGITFYGYAMGWYRQAPGKERELVATISSGGGTNYADSVKGRFTISRDNAKNTVYLQMNSLKPEDTAVYYCATDLSTVDYNYWGQGTQVTVSS
polyreactivity (PSR sort gate): low polyreactivity

QVQLVESGGGLVQAGGSLRLSCAASGITFYGYDMGWFRQAPGKERELVASSTYYADSVKGRFTISRDNAKNTVYLQMNSLKPEDTAVYYCITVYYQWVTYGYWGQGTQVTVSS
polyreactivity (PSR sort gate): high polyreactivity

QVQLVESGGGLVQAGGSLRLSCAASGITFYGYDMGWYIQAPGKERELVAAISRSGGSTYYADSVKGRFTISRDNAKNTVYLQMNSLKPEDTAVYYCAADKQGYRGRTPYRYYSWGQGTQVTVSS
polyreactivity (PSR sort gate): high polyreactivity

QVQLVESGGGLVQAGGSLRLSCAASGITFYIYAMGCYRHAPGKERELVAAISSTGGSTYYADSVKGSFTISRDNAKNTVYLQMNSLKPEDNAVYYCNAVFRGTGDYWGQGTQVTVSS
polyreactivity (PSR sort gate): high polyreactivity

QVQLVESGGGLVQAGGSLRLSCAASGITFYKNAMGWYRPAPGKERELVAAISGRGGTTYYADSVKGRFTLSRDNAKNTVYVQMNSLKPEDTAVYYCNTVRWAWPYLKFDYWGQGTQVTVSS
polyreactivity (PSR sort gate): high polyreactivity

QVQLVESGGGLVQAGGSLRLSCAASGITFYKYDMGCYRQATGKERELVAAISFRGGNTNYADSVKGRFTISRDNAKNTVYLQMTSLKPEDTAVYYCAAYSYTWFYEYGYWGLGTQVTVSS
polyreactivity (PSR sort gate): high polyreactivity

QVQLVESGGGLVQAGGSLRLSCAASGITFYLNAMGWYRQAPGKDRELVADITVSGGSTYYADSVKGRFTISRDNAKNTVYLQMNSLKPEDTAVYYCAADLTISYSQEYYYWGQGTQVTVSS
polyreactivity (PSR sort gate): low polyreactivity

QVQLVESGGGLVQAGGSLRLSCAASGITFYLNAMGWYRQAPGKERELVADITVSGGSTYYADSVKGRFTISRDNAKNTVYLQMNSLKREDTAVYYCAADLTISYSQEYYYWGQGTQVTVSS
polyreactivity (PSR sort gate): low polyreactivity

QVQLVESGGGLVQAGGSLRLSCAASGITFYLYAMGWYRQAPGKERELVASITTDDSTNYADSVKGRFTISRDNAKNTVYLLMNSLKPEDTAVYYCATASYHRHHHGYDYWGQGTQVTVSS
polyreactivity (PSR sort gate): low polyreactivity

QVQLVESGGGLVQAGGSLRLSCAASGITFYLYVMGWYRQAPGKERELVAAISSGGSTYYADSVKGRFTISRDNAKNTVYLQMNSLKPEDTAVYYCAADVARYLHYSYHEDYYWGQGTQVTVSS
polyreactivity (PSR sort gate): low polyreactivity

QVQLVESGGGLVQAGGSLRLSCAASGITFYPYAMGWYRQAPGKERELVAAISRRGGSTNYADSVKGRFTISRDNAKNTVYLQMNSLKPEDTAVYYCNRDYPIGYRQDPVYYWGQGSQVTVSS
polyreactivity (PSR sort gate): high polyreactivity

QVQLVESGGGLVQAGGSLRLSCAASGITFYQYAMGWYRQAPGTETELVAGISYSGGSTYYADSVKGRFTISRDNAKNTVYLQMNSLKPEDTAVYYCAAVQPVGLYPRTKYYYWGQGTQVTVSS
polyreactivity (PSR sort gate): high polyreactivity

QVQLVESGGGLVQAGGSLRLSCAASGITFYRNARGWYRQAPGNEMELVAAITWNGGRTYYADSVKGRVTISRDNAKNTVDLQMNSLKPEDTAVYDCAADSGTRNLASYRYYYWGQGTLVTVSS
polyreactivity (PSR sort gate): low polyreactivity

QVQLVESGGGLVQAGGSLRLSCAASGITFYRYAMGWYRQAPGKERALVAAISWRSGSTNYADSVKGRFTISRDNAKNTVYLQMNSLKPADTAVYYCAARVADYPLFGGSSYNRMEYWGQGTQVTVTS
polyreactivity (PSR sort gate): low polyreactivity

QVQLVESGGGLVQAGGSLRLSCAASGITFYSNAMGWYRQAPGKERELVARISSSGGSTYYADSVKGRFTISRDNAKNTVYLQMNSLKPEDTAVYYCAARRLWVRGYNYWGQGTQVTVSS
polyreactivity (PSR sort gate): high polyreactivity

QVQLVESGGGLVQAGGSLRLSCAASGITFYSYAMGWYRQAPGKEMELVAAITRSGGSTYYADSVKGRFTISRDNAKNTVYLQMISLKPEDTAVYYCAAEEGRVFSGGYEYWGQGTQVTVSS
polyreactivity (PSR sort gate): high polyreactivity
